Key:
[1] = test system: biofilm-embedded S. epidermidis; test: In vitro biofilm killing assay after DispersinB pre-treatment; assay type: cell-based, Staphylococcus epidermidis; details: DispersinB alone, 20 μg/ml, 30 min
Procedure: An in vitro biofilm assay was performed to determine the effect of DispersinB™ pre-treatment on the susceptibility of S. epidermidis to SDS. S. epidermidis biofilm grown in tubes were pretreated with PBS or DispersinB™ (20 μg/ml) for 30 min, and then treated with SDS (0.2 mg/ml) for 5 min at 37° C. […] However, SDS caused a 1.5 log unit decrease in the number of CFUs in tubes pretreated with […] biofilm embedded cells more susceptible to SDS.
An in vitro biofilm assay was performed to determine the effect of DispersinB™ pre-treatment on the susceptibility of biofilm-embedded S. epidermidis to CHX. S. epidermidis biofilm grown in tubes were pretreated with PBS or DispersinB™ (20 μg/ml) for 30 min, and then treated with CHX (0.2 μg/ml) for 5 min at 37° C. […] However, CHX caused a 1.6 log decrease of CFU in tubes pretreated with DispersinB™. DispersinB™ pretreatment made biofilm-embedded cells more susceptible to CHX.
An in vitro biofilm assay was performed to determine the effect of DispersinB™ pre-treatment on the susceptibility of S. epidermidis to BKC. S. epidermidis biofilm grown in tubes were pretreated with PBS or DispersinB™ (20 μg/ml) for 30 min, and then treated with BKC (0.4 μg/ml) for 60 min at 37° C. […] However, BKC caused a 2.2 log decrease in CFU in tubes pretreated with DispersinB™. DispersinB™ pre-treatment made biofilm-embedded cells more susceptible to BKC.
An in vitro biofilm assay was performed to determine the effect of DispersinB™ pre-treatment on susceptibility of S. epidermidis to silver nanopowder (SNP). S. epidermidis biofilm grown in tubes were pretreated with PBS or DispersinB™ (20 μg/ml) for 30 min, and then treated with SNP (0.03125 μg/ml) for 60 min at 37° C. […] However, SNP caused a 1.5 log decrease in CFU in tubes pretreated with DispersinB™. DispersinB™ pre-treatment made biofilm embedded cells more susceptible to SNP treatment.

S. aureus = test: In vitro microplate biofilm formation assay (crystal violet); assay type: cell-based, Staphylococcus aureus; details: DispersinB at different concentrations, TSB, 37° C., 24 hours
Procedure: (§1) An in vitro microplate assay was performed to determine the effect of DispersinB™ on the growth and biofilm formation of E. coli, S. epidermidis, and S. aureus. E. coli biofilm was grown in colony forming antigen (CFA) medium. […] S. epidermidis and S. aureus biofilm was grown in tryptic soy broth (TSB). Bacteria were separately grown in 96-well microtiterplate in the absence and presence of DispersinB™ at different concentrations. The E. coli plate was incubated at 26° C. for 24 hours. The S. epidermidis and S. aureus biofilm plates were incubated at 37° C. for 24 hours. Growth of planktonic cells based on the absorbance at 600 nm was determined using Labsystems Multiskan Ascent microplate reader. Biofilm was measured by discarding the medium; rinsing the wells with water (three times), and staining bound cells with crystal violet. The dye was solubilized with 33% acetic acid, and absorbance at 630 nm was determined using a microtiter plate reader.

[2] = DispersinB enzyme activity; assay type: biochemical; details: recombinant protein purified from an overexpressing strain of E. coli
Procedure: Reagents. Recombinant dispersinB protein was purified from an overexpressing strain of E. coli as previously described (Kaplan et al., J. Bacteriol. 2003, 185: 4693-4698). […] Sodium dodecyl sulfate (SDS) was purchased from Fluka (St. Gallen, Switzerland). Phosphate-buffered saline (PBS; 138 mM NaCl, 10 mM phosphate, 2.7 mM KCl, pH 7.4) was purchased from Sigma Chemical Company (St. Louis, Mo., USA).

[3] = test system: E. coli csrA luxCDABE kan^r biofilm; test: Bioluminescent E. coli biofilm on filter disc, luminescence; assay type: cell-based; details: for luminescence, Day 1 / luminescence, Day 2 / luminescence, Day 3 / luminescence, Day 4: DispersinB 50 μg/ml
Text: E. coli TRMG1655 [csrA::kan^r] strain was transformed with transposon, mini-TN5 luxCDABE::kan^r for luciferase expression (Kadurugamuwa et al., 2005, Infect. Immun. 73: 3878-3887), and the operon integrated into the chromosome. Integration was confirmed by amplification of the genomic DNA upstream of the transposon by inverse PCR using Ssp1-digested genomic DNA. Primers UTCF1 (5′-[…]-3′; SEQ ID NO:13) and UTCR (5′-[…]-3′; SEQ ID NO:14) were used to amplify the upstream region using Pfu DNA polymerase (Sigma-Oligosynthesis, St. Louis, Mo.). The lux operon is derived from Photorhabdus luminescence and was obtained from Xenogen Inc. (Alameda, Calif.). These bioluminescent bacteria allow real-time monitoring by noninvasive imaging of biofilms, either in vitro or in vivo.
A cell suspension of 10^6 E. coli csrA luxCDABE kan^r was used to inoculate a filter disc (Millipore Corporation, Billerica, Mass.). The E. coli biofilm was maintained in minimal media (M9) supplemented with 50 μg/ml kanamycin and 100 μg/ml ampicillin. The media were changed every day by transferring the disc to new plate. After 3 days, chemoluminescence activity of the established biofilm was measured using a Typhoon™ imaging scanner (General Electric Healthcare Life Sciences) and ImageQuant TL software (Amersham Biosciences, Sunnyvale, Calif.). The measure luminescence directly correlates with the metabolic activity of the biofilm.
Luminescence was measured at day 0 and was used as the control. Following the measurement of luminescence at day 0, each disc was treated with one of the following—media alone (control) and media containing:
Luminescence was measured every 24 hours followed by replacing the media. Thus, every 24 h following the measurement of the luminescence, 10 μl each of the different solutions was applied to the plate and the biofilm disc was placed on top of the drop everyday. The quantitative analysis of the biofilm luminescence from each day was used to compare the biofilm activity after treatment with the different treatments.
The experiments were repeated using the same E. coli strain csrA luxCDABE kan^r and protocols. Biofilm discs were pulsed with media alone (control) and media containing: […]

[4] = Shelf life of purified DispersinB; assay type: physicochemical
S. epidermidis biofilm = test: Dispersal of S. epidermidis biofilm aggregates in a tube; assay type: cell-based; details: scraped biofilm cell aggregates in tube treated with DispersinB
Text: The biofilm growth from the surface was scraped from the bottom of the tube and transferred to another tube (FIG. 2). Under these condition cells formed a sticky aggregate that rapidly settle to the bottom of the tube.

E. coli = test: In vitro microplate biofilm formation assay (crystal violet); assay type: cell-based, Escherichia coli; details: DispersinB at different concentrations, CFA medium, 26° C., 24 hours
Procedure: as §1

[5] = Table 3, phage 10^8, treatment renewed every 24 h
[6] = Table 4, repeated experiment, BisEDT 50 μg/ml, phage cocktail 10^8

B1: DispersinB™: 381 amino acid soluble β-N-acetylglucosaminidase encoded by dspB of A. actinomycetemcomitans; mature polypeptide SEQ ID NO:11 (protein)
chain: NCCVKGNSIYPQKTSTKQTGLMLDIARHFYSPEVIKSFIDTISLSGGNFLHLHFSDHENYAIESHLLNQRAENAVQGKDGIYINPYTGKPFLSYRQLDDIKAYAKAKGIELIPELDSPNHMTAIFKLVQKDRGVKYLQGLKSRQVDDEIDITNADSITFMQSLMSEVIDIFGDTSQHFHIGGDEFGYSVESNHEFITYANKLSYFLEKKGLKTRMWNDGLIKNTFEQINPNIEITYWSYDGDTQDKNEAAERRDMRVSLPELLAKGFTVLNYNSYYLYIVPKASPTFSQDAAFAAKDVIKNWDLGVWDGRNTKNRVQNTHEIAGAALSIWGEDAKALKDETIQKNTKSLLEAVIHKTNGDE
modifications: Actinobacillus actinomycetemcomitans
killing of biofilm-embedded S. epidermidis [1]: did not significantly kill | biofilm formation (S. aureus): appreciable effect | specific activity [2]: ~10^3 units per mg of protein | luminescence, Day 0 ([3]; Table 3, Day 0, measured before treatment (baseline)): 948.72 RLU | luminescence, Day 1 [3, 5]: 1167.19 RLU | luminescence, Day 2 [3, 5]: 1297.42 RLU | luminescence, Day 3 [3, 5]: 1487.76 RLU | luminescence, Day 4 [3, 5]: 1550.01 RLU | luminescence, Day 1 [3, 6]: 2137.73 RLU | luminescence, Day 2 [3, 6]: 1911.9 RLU | luminescence, Day 3 [3, 6]: 2982.02 RLU | luminescence, Day 4 [3, 6]: 2032.06 RLU | luminescence, Day 0 ([3]; Table 4, repeated experiment, Day 0, before treatment (baseline)): 1815.26 RLU | course of biofilm luminescence (RLU) / metabolic activity over time ([3]; over 4 days, result in words): growth similar to the control | shelf life [4]: approximately 12 months | dispersal of S. epidermidis biofilm (S. epidermidis biofilm): detaches the biofilm | biofilm formation (E. coli): appreciable effect

— US8821862B2, “Soluble β-N-acetylglucosaminidase based antibiofilm compositions and uses thereof” (Kane Biotech Inc., priority 2002, dated 2014)
